PMC7105311, “Structure and function of Bs164 β-mannosidase from Bacteroides salyersiae the founding member of glycoside hydrolase family GH164” (The Journal of Biological Chemistry, 2019)

Target: Bs164 β-mannosidase from Bacteroides salyersiae CL02T12C01 (His6 tag removed) (Bacteroides salyersiae CL02T12C01)
Test: SEC-MALS; Superdex S200 10/300, 80 mM MES (pH 5.5), 200 mM NaCl, room temperature (20 ± 2 °C), 100 μl injected at 5 mg/ml

stoichiometry N: 3
Substance: Bs164 β-mannosidase from Bacteroides salyersiae CL02T12C01 (His6 tag removed) (enzyme)
